# Experimental data: US20120039874 (published 2012)
# T1: human AILIM-IgFc (human, UniProt Q9Y6W8)
# T1 chain: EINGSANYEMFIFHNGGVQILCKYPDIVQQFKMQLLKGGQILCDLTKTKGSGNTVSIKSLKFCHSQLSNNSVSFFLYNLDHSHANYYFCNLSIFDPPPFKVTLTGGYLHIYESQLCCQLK
# Molecular target: T1, human AILIM-IgFc
# Assay: SPR
row,Kd [pM],Binder
1,1100,"AII289 (JMab-138) (antibody, V domains shown) VH: EVQLVESGGGLVQPGGSLRLSCAASGFTFSSYDMHWVRQATGKGLEWVSAIGTAGDTYYPGSVKGRFTISRENAKNSLYLQMNSLRAGDTAVYYCVRDNRKVTHEHYYYYGMDVWGQGTTVTVSS VL: EIVLTQSPGTLSLSPGERATLSCRASQNIRSSYLAWYQQKPGQAPGLLIYGASSRATGIPDRFSGSGSGTDFTLTISRLEPEDFAVYYCQQFGSSPMCSFGQGTKLEIKR"
2,770,"AII394 (JMab-139) (antibody, V domains shown) VH: EVQLVESGGGLVQPGGSLRLSCAASGFTFSSYDMHWVRQATGKGLEWVSAIGTAGDTYYPGSVKGRFTISRENAKNSLYLQMNSLRAGDTAVYYCVRDKRTVTHEHYYYYGMDVWGQGTTVTVSS VL: EIVLTQSPGTLSLSPGERATLSCRASQSISSSSLAWYQQKPGQAPGLLIFGASSRATGIPDRFSGSGSGTDFTLTISRLEPEDFAVYYCQQFGSSPMCSFGQGTKLEIKR"
